According to patent US20240116985A1 (published 2024):
Starred links: 1 amine or outer side, 2 acyl side, 3 side chain; linkers in the order of their positions; H or OH if unused. Positions of bridges follow the written chain, without caps; N, C: chain ends. Non-standard residues stand in square brackets, D forms with d. Primed or numbered codes have the meaning given here. ξ: configuration not given here. PyrS2(3) = (S)-3-amino-1-((pent-4-en-1-yloxy)carbonyl)pyrrolidine-3-carboxylic acid, stapling residue, C=CCCCOC(=O)N1CC[C@@](N[*:1])(C(=O)[*:2])C1; PyrS2″ = (S)-3-amino-1-((pent-4-en-1-yloxy)carbonyl)pyrrolidine-3-carboxylic acid (stapling residue), C=CCCCOC(=O)N1CC[C@@](N[*:1])(C(=O)[*:2])C1; B5(16) = 2-amino-2-(pent-4-en-1-yl)hept-6-enoic acid = 2,2-bis(4-pentenyl)glycine (stitching residue), C=CCCCC(CCCC=C)(N[*:1])C(=O)[*:2]; B5(4) = 2,2-bis(4-pentenyl)glycine = 2-amino-2-(pent-4-en-1-yl)hept-6-enoic acid (stitching residue), C=CCCCC(CCCC=C)(N[*:1])C(=O)[*:2]; B5(20) = 2-amino-2-(pent-4-en-1-yl)hept-6-enoic acid = bis(4-pentenyl)glycine, stitching residue, C=CCCCC(CCCC=C)(N[*:1])C(=O)[*:2]; TfeGA = (S)-2-amino-3-((carboxymethyl)(2,2,2-trifluoroethyl)amino)propanoic acid, O=C([C@H](CN(CC(=O)[*:3])CC(F)(F)F)N[*:1])[*:2]; PyrS2 = (S)-3-amino-1-((pent-4-en-1-yloxy)carbonyl)pyrrolidine-3-carboxylic acid, C=CCCCOC(=O)N1CC[C@@](N[*:1])(C(=O)[*:2])C1; B5(3) = 2,2-bis(4-pentenyl)glycine (stitching residue), C=CCCCC(CCCC=C)(N[*:1])C(=O)[*:2]; B5″ = 2,2-bis(4-pentenyl)glycine, stitching residue, C=CCCCC(CCCC=C)(N[*:1])C(=O)[*:2]; Phe(2-CONH2) = NC(=O)c1ccccc1C[C@H](N)C(=O)O; Phe(2-Cl) = N[C@@H](Cc1ccccc1Cl)C(=O)O; Phe(2-OMe) = COc1ccccc1C[C@H](N)C(=O)O; Bta = N[C@@H](Cc1csc2ccccc12)C(=O)O; αAllylPro = C=CC[C@@]1(C(=O)O)CCCN1; tBuAla = CC(C)(C)C[C@H](N)C(=O)O; 3Thi = N[C@@H](Cc1ccsc1)C(=O)O; Cha = N[C@@H](CC1CCCCC1)C(=O)O; S8 = C=CCCCCCC[C@](C)(N)C(=O)O; Thr(ol) = C[C@@H](O)[C@H](N)CO; ξβ3hD = NC(CC(=O)O)CC(=O)O; hSer = N[C@@H](CCO)C(=O)O

Legend:
[1] = molecular target: T1, B-cat-Halo (beta-catenin HaloTag construct expressed in HEK293 cells) (UniProt P35222 1-781); experiment: cell-based or functional assay
T1 sequence (looked up): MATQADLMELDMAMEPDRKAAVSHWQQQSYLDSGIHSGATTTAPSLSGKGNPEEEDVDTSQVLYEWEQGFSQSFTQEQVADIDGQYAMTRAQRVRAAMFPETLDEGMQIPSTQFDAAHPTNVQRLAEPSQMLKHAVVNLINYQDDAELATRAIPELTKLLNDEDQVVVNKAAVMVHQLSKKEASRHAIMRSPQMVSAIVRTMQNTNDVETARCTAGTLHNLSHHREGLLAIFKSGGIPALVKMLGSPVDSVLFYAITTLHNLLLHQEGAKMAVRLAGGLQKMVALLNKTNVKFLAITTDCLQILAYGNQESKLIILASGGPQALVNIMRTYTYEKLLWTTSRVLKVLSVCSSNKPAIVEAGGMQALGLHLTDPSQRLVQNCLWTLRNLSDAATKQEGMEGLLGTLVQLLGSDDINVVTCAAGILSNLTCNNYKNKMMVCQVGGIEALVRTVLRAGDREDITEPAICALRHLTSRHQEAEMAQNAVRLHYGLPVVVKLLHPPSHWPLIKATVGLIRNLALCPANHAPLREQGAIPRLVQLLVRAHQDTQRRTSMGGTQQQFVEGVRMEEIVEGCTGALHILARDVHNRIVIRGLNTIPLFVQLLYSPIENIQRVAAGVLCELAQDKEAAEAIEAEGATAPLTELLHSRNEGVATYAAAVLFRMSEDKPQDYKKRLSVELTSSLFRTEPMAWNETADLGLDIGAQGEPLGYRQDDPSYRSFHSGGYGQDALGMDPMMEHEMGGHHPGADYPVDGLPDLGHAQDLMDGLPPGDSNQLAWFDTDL

[2] = molecular target: T2, full-length beta-Catenin (Uniprot ID P35222) (Homo sapiens (Human), UniProt P35222 1-781); experiment: FP competition: full-length beta-catenin 10 nM + 5FAM-TCF4(10-53) 10 nM
T2 construct: also called bCat; B-Catenin
T2 sequence: T1 sequence (looked up)
Experimental: (§1) The plate was incubated protected from light for 60 minutes at 20° C. prior to read. Reads were performed on a CLARIOstar plate reader (BMG Labtech) in duplicate, and data were fitted to a 1:1 binding model with hill slope using an in-house script. All provided concentrations are final concentrations.

[3] = molecular target: T3, B-cat-Halo (NanoBRET construct expressed in HEK293 cells) (UniProt P35222 1-781); experiment: cell-based or functional assay
T3 sequence (looked up): T1 sequence (looked up)

[4] = molecular target: T4, full-length beta-Catenin (Uniprot ID P35222) (Homo sapiens (Human), UniProt P35222 2-781); experiment: AlphaScreen competition; peptide titrated against full-length beta-catenin + biotin-TCF4(10-53)
T4 construct: The assay protocols say only 'full-length'; No tag is stated, although the AlphaScreen kit is a Histidine (Nickel Chelate) kit; also called B-Catenin; bCat
T4 sequence: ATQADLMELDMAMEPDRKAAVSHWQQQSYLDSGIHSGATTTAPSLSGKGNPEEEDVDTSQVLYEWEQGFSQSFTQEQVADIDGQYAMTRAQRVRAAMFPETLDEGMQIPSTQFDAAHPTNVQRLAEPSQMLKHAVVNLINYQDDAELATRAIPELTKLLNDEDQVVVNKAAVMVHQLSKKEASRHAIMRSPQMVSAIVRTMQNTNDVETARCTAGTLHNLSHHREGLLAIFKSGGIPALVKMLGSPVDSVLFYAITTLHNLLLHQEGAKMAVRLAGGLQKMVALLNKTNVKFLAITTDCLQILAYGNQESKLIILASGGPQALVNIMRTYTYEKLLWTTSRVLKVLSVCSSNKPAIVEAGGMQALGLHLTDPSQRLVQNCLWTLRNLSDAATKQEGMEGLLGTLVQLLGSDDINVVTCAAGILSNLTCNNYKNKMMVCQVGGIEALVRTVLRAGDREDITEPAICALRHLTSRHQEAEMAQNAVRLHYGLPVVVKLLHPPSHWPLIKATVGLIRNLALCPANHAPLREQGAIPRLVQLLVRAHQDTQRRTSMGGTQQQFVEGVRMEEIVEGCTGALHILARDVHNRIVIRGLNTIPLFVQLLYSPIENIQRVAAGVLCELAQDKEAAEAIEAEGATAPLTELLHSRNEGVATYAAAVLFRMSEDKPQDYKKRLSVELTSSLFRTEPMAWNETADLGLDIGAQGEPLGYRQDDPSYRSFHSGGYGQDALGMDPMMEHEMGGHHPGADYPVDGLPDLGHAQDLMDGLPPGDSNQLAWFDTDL
Experimental: as §1, with “Equal volume of the titrated peptide was added to the” for “The”, “and” for “was”, “incubated for 15 minutes at 20° C. Then 4 uL of donor and 4 uL acceptor beads at 10 ug/mL were added to the plate, for a 16 uL reaction pool and” for “incubated”

[5] = molecular target: T5, beta-catenin in TCF/LEF luciferase reporter cells (Homo sapiens (Human), UniProt P35222 1-781); experiment: cell-based or functional assay
T5 sequence: T1 sequence (looked up)

B-cat-Halo = molecular target: T6, B-cat-Halo (UniProt P35222 1-781); experiment: cell-based or functional assay
T6 sequence (looked up): T1 sequence (looked up)

Ac-[αAllylPro]D[tBuAla][B5(4)]DTAAFT[PyrS2″][3Thi][Bta]S-NH2 (staple 1-4, 4-11) [I-1170]
NanoBRET Abs IC50 [1]: 13.5 µM

Ac-[αAllylPro]DI[B5(20)]DEAAFN[S8][Phe(2-OMe)][Bta]H-NH2 (staple 1-4, 4-11, Stapled peptide composition) [I-512]
IC50 [2]: 0.02 µM
NanoBRET Abs IC50 [3]: 12.3 µM

Ac-[αAllylPro]DI[B5(20)]DEAAFN[S8][Phe(2-CONH2)][Bta]H-NH2 (staple 1-4, 4-11, Stapled peptide composition) [I-514]
IC50 [2]: 0.03 µM
NanoBRET Abs IC50 [3]: > 20 µM

Ac-[αAllylPro]D[tBuAla][B5(4)]DTAAFT[PyrS2″][3Thi][Bta]Q-NH2 (staple 1-4, 4-11) [I-1166]
NanoBRET Abs IC50 [1]: 14.6 µM

B1: I-352 (peptide)
peptide: Ac-[αAllylPro]DA[B5(16)]DAAAFV[S8]FWQ-NH2
modifications: staple 1-4, 4-11
notes: Stapled peptide composition; also called Ac-PL3-Asp-Ala-B5-Asp-Ala-Ala-Ala-Phe-Val-S8-Phe-Trp-Gln-NH2
EC50 [4]: 0.377 µM

Ac-[αAllylPro]D[tBuAla][B5(3)]D[TfeGA]AAF[hSer][PyrS2″][Phe(2-Cl)][Bta][hSer]-NH2 (staple 1-4, 4-11) [I-993]
TCF Reporter Assay Abs IC50 (uM), peptide + ST-Protein [5]: 0.2 µM
TCF Reporter Assay Abs IC50 (uM), peptide only [5]: 5 µM

Ac-[αAllylPro]D[tBuAla][B5″]D[TfeGA]AAFN[PyrS2(3)][3Thi][Bta]Q-NH2 (staple 1-4, 4-11) [I-762]
TCF Reporter Assay Abs IC50 (uM), peptide + ST-Protein [5]: 0.3 µM
TCF Reporter Assay Abs IC50 (uM), peptide only [5]: 7 µM

B2: I-348 (peptide)
peptide: XAAXDDAAFVXFWQ
modifications: not fully specified; N-terminal Ac; C-terminal NH2; PL3 at 1, B5 at 4, S8 at 11 (stapled 1-4 and 4-11)
notes: Stapled peptide composition; Earlier-eluting isomer composition; also called Ac-PL3-Ala-Ala-B5-Asp-Asp-Ala-Ala-Phe-Val-S8-Phe-Trp-Gln-NH2
EC50 [4]: 10 µM

Ac-[αAllylPro]N[tBuAla][B5(4)]DDAAFL[PyrS2][3Thi][Bta][Thr(ol)] (staple 1-4, 4-11) [I-1304]
NanoBRET Abs IC50 (uM); B-cat-Halo / TCF4-Luc in HEK293 cells (B-cat-Halo): 33.6 µM

Ac-[αAllylPro]D[tBuAla][B5(4)]DTAAFL[PyrS2″][3Thi][Bta]Q-NH2 (staple 1-4, 4-11) [I-1167]
NanoBRET Abs IC50 [1]: 11.7 µM

Ac-[αAllylPro][ξβ3hD][tBuAla][B5(4)]D[TfeGA]AAFN[PyrS2″][3Thi][Bta]Q-NH2 (staple 1-4, 4-11) [I-1161]
NanoBRET Abs IC50 [1]: > 20 µM

Ac-[αAllylPro]D[Cha][B5(4)]DDAAFL[PyrS2″][Phe(2-Cl)][Bta][Thr(ol)] (staple 1-4, 4-11) [I-1307]
NanoBRET Abs IC50 (uM); B-cat-Halo / TCF4-Luc in HEK293 cells (B-cat-Halo): 38.8 µM

Ac-[αAllylPro]DA[B5(20)]DEAAFN[S8][3Thi][Bta]H-NH2 (staple 1-4, 4-11; also: later-eluting HPLC peak of staple isomers) [I-516]
NanoBRET Abs IC50 [3]: 30.5 µM
